# Assay results published in patent US20240158494A1 (Biogen, published 2024).
# Substitutions are numbered along the chain they refer to. Numbers in names are those of the source.
# B1: TfRANTIBODY-B HC-H4C/LC-L2 (C90S) hIgG1Fab′(1C) (Fab, V domains shown)
# VH: QSLVESGGGVVQPGRSLRLSCKASGFSFSNSYWICWVRQAPGKGLEWVGCINTDADSTNYASWARGRFTISKTSSTTVYLQMNSLRAEDTAVYYCARQNNVFDPGYNLWGPGTLVTVSS
# VL: ELVLTQSPSTLSASVGDRVTITCRASQNIGSNLAWYQQKPGKAPKLLIYDASKLESGVPSRFSGSGSGTEFTLTISSLQPDDFATYYCQSTVRGGAYGNAFGGGTKVEIKR
# notes: also called ANTIBODY-B H4C/L2(C90S); H4C (C90S)/L2
# B2: TfRANTIBODY-B HC-H4C/LC-L2 (C90T) hIgG1Fab′(1C) (Fab, V domains shown)
# VH: B1 VH
# VL: B1 VL with S90T
# notes: also called ANTIBODY-B H4C/L2(C90T); H4C (C90T)/L2
# B3: TfRANTIBODY-B HC-H1C/LC-L2 (C90S) hIgG1Fab′(1C) (Fab, V domains shown)
# VH: QSLVESGGGVVQPGRSLRLSCAASGFSFSNSYWICWVRQAPGKGLEWVGCINTDADSTNYADSVKGRFTISKDNSKNTVYLQMNSLRAEDTAVYYCARQNNVFDPGYNLWGQGTLVTVSS
# VL: B1 VL
# notes: also called ANTIBODY-B H1C/L2(C90S)
# B4: TfRANTIBODY-B HC-H1C/LC-L2 (C90T) hIgG1Fab′(1C) (Fab, V domains shown)
# VH: B3 VH
# VL: B1 VL with S90T
# notes: also called ANTIBODY-B H1C/L2(C90T)
# B5: TfR1 ANTIBODY-B HC-H4C hIgG1 Fab′(1C)/LC-L2 hKappa (Fab, V domains shown)
# VH: B1 VH
# VL: B1 VL with S90C
# notes: also called ANTIBODY-B H4C/L2; exemplary construct (v)
# B6: TfR1 ANTIBODY-A HC-H3C hIgG1 Fab′(1C)/LC-L0 hKappa (Fab, V domains shown)
# VH: QSLVESGGGLVQPGGSLRLSCKASGIDFSSSGYMCWVRQAPGKGLEWVGCIYTYSSNTYYASWAKGRFTISKDSKNSVYLQMNSLKTEDTAVYYCARGTYGYTGYTYTMGYFSLWGPGTLVTVSS
# VL: DIQMTQSPSTLSASVGDRVTITCQASQNINSYLAWYQQKPGKAPKLLIYRASSLESGVPSRFSGSGSGTEFTLTISSLQPDDFATYYCQSYYYSGSSNYNAFGGGTKVEIKR
# notes: also called ANTIBODY-A H3C/L0; TfRANTIBODY-A HC-H3C hIgG1Fab′(1C)/LC-L0 hKappa
# B7: TfR1 ANTIBODY-A HC-H4C hIgG1 Fab′(1C)/LC-L0 hKappa (Fab, V domains shown)
# VH: B6 VH with D73T, K75S, N76T, S77T
# VL: B6 VL
# notes: also called ANTIBODY-A H4C/L0
# B8: TfR1 ANTIBODY-B HC-H1C hIgG1 Fab′(1C)/LC-L2 hKappa (Fab, V domains shown)
# VH: B3 VH
# VL: B1 VL with S90C
# notes: also called ANTIBODY-B H1C/L2; TfRANTIBODY-B HC-H1C/LC-L2 hIgG1Fab′(1C)
# B9: TfR1 ANTIBODY-B HC-H3C hIgG1 Fab′(1C)/LC-L2 hKappa (Fab, V domains shown)
# VH: B3 VH with D62S, S63W, V64A, K65R, V79L
# VL: B1 VL with S90C
# notes: also called ANTIBODY-B H3C/L2; TfRANTIBODY-B HC-H3C/LC-L2 hIgG1Fab′(1C)
# B10: TfR1 ANTIBODY-B HC-H2C hIgG1 Fab′(1C)/LC-L2 hKappa (Fab, V domains shown)
# VH: B1 VH with S62D, W63S, A64V, R65K, T73D, P111Q
# VL: B1 VL with S90C
# notes: also called ANTIBODY-B H2C/L2
# B11: TfR1 ANTIBODY-B HC-H4 hIgG1 Fab′(1C)/LC-L2 hKappa (Fab, V domains shown)
# VH: B1 VH with C35A, G49A, C50A
# VL: B1 VL with S90C
# notes: also called ANTIBODY-B H4/L2
# B12: chimeric ANTIBODY-A mAb (RabANTIBODY-A, bivalent huIgG1) (antibody, V domains shown)
# VH: QSLEESGGGLVQPGASLTLTCKASGIDFSSSGYMCWVRQAPGKGLEWIGCIYTYSSNTYYASWAKGRFTISKTSSTTVTLQMTSLTAADTATYFCARGTYGYTGYTYTMGYFSLWGPGTLVTVSS
# VL: ELDMTQTPASVEAAVGGTVTIKCQASQNINSYLAWYQQKPGQPPKLLIYRASTLASGVPSRFKGSGSGTEFTLTISDLECADAATYYCQSYYYSGSSNYNAFGGGTELEIL
# notes: rabbit variable regions with a human IgG1 framework, bivalent huIgG1; also called RabAB-A
# B13: chimeric ANTIBODY B mAb (RabANTIBODY-B, bivalent huIgG1) (antibody, V domains shown)
# VH: QSLEESGGGLVQPEGSLTLTCKASGFSFSNSYWICWVRQAPGKGLEWIGCINTDADSTNYASWARGRFTISKTSSTTVTLQMTSLTAADTASYFCARQNNVFDPGYNLWGPGTLVTVSS
# VL: ELVLTQTPASVSEAVGGTVTIKCQASQNIGSNLAWYQQKPGQPPKLLIYDASKLASGVPSRFSGSGSGTEFTLTISDLECADAATYYCQCTVRGGAYGNAFGGGTEVVVK
# notes: rabbit variable regions with a human IgG1 framework, bivalent huIgG1; also called rabAB-B
# Molecular target: T1, human transferrin receptor 1 (TfR1), full length, expressed on cells (human, UniProt P02786 1-760)
# T1 construct: also called human TfR1; huTfR
# Test: FACS on Ba/F3 cells, purified Fab
row,Binder,EC50 [nM]
1,B1,7.3
2,B2,5.1
3,B3,6.1
4,B4,13.6

# Molecular target: T2, cynomolgus monkey transferrin receptor 1 (TfR1), full length, expressed on cells (cynomolgus monkey, UniProt Q5RDH6 1-760 (Pongo abelii entry))
# T2 construct: also called cyno TfR1; cyTfR
# Test: FACS on Ba/F3 cells, purified Fab
row,Binder,EC50 [nM]
1,B1,1.5
2,B2,3.4
3,B3,3.2
4,B4,3.2

# Molecular target: T3, recombinant cynomolgus monkey TfR1 extracellular domain, His-tagged (cynomolgus monkey, UniProt Q5RDH6 87-760 (Pongo abelii entry))
# T3 construct: also called Cyno TfR1 ECD; cyno TfR1 ECD-His
# Test: SPR, TfR1 ECD-His captured, Fab injected, 1:1 fit
Binder,Kd [nM],koff [s⁻¹],kon [M⁻¹ s⁻¹]
B5,0.7,0.000279,398000
B6,2.5,0.0103,4.1e+06
B7,3.3,0.00583,1.75e+06
B8,1.3,0.000425,315000
B9,1.7,0.000608,348000
B10,1.1,0.000472,445000
B11,2.2,0.000508,228000

# Molecular target: T4, recombinant human TfR1 extracellular domain, His-tagged (human, UniProt P02786 89-760)
# T4 construct: also called Human TfR1 ECD; human TfR1 ECD-His
# Test: SPR, TfR1 ECD-His captured, Fab injected, 1:1 fit
Binder,Kd [nM],koff [s⁻¹],kon [M⁻¹ s⁻¹]
B5,3.4,0.000767,223000
B6,1.4,0.0012,835000
B7,0.99,0.000878,887000
B8,6.7,0.00115,171000
B9,7.4,0.00147,200000
B10,5.8,0.000999,170000
B11,11.6,0.00155,134000

# Molecular target: T1, human transferrin receptor 1 (TfR1), …
# Test: FACS on Ba/F3 cells, Fab supernatant
row,Binder,EC50 [nM]
1,B6,1.1
2,B8,10.1

# Molecular target: T2, cynomolgus monkey transferrin receptor …
# Test: FACS on Ba/F3 cells, Fab supernatant
row,Binder,EC50 [nM]
1,B6,1.5
2,B8,2.8

# Molecular target: T1, human transferrin receptor 1 (TfR1), …
# Test: FACS on Ba/F3 cells, Fab supernatant
# Remark: another data set of the same source
row,Binder,EC50 [nM]
1,B5,5.4
2,B1,11.3
3,B2,7.7
4,B8,5.9
5,B3,14.9
6,B4,12.6
7,B9,7

# Molecular target: T2, cynomolgus monkey transferrin receptor …
# Test: FACS on Ba/F3 cells, Fab supernatant
# Remark: another data set of the same source
row,Binder,EC50 [nM]
1,B5,1.9
2,B1,3.3
3,B2,2.9
4,B8,2.3
5,B3,4.4
6,B4,5.4
7,B9,4

# Molecular target: T1, human transferrin receptor 1 (TfR1), …
# Test: FACS on Ba/F3 cells, Fab supernatant
# Remark: another data set of the same source
row,Binder,EC50 [nM]
1,B6,2.5
2,B7,1.4

# Molecular target: T2, cynomolgus monkey transferrin receptor …
# Test: FACS on Ba/F3 cells, Fab supernatant
# Remark: another data set of the same source
row,Binder,EC50 [nM]
1,B6,2.7
2,B7,1.8

# Molecular target: T1, human transferrin receptor 1 (TfR1), …
# Test: FACS on Ba/F3 cells, Fab supernatant
# Remark: another data set of the same source
row,Binder,EC50 [nM]
1,B5,4.7
2,B8,3.8
3,B9,6.8
4,B10,3.3
5,B11,2.3

# Molecular target: T2, cynomolgus monkey transferrin receptor …
# Test: FACS on Ba/F3 cells, Fab supernatant
# Remark: another data set of the same source
row,Binder,EC50 [nM]
1,B5,2.9
2,B8,2.8
3,B9,2.6
4,B10,2.2
5,B11,4.6

# Molecular target: T1, human transferrin receptor 1 (TfR1), …
# Test: FACS on Ba/F3 cells, purified Fab
# Remark: another data set of the same source
row,Binder,EC50 [nM]
1,B6,1.6
2,B7,1.4

# Molecular target: T2, cynomolgus monkey transferrin receptor …
# Test: FACS on Ba/F3 cells, purified Fab
# Remark: another data set of the same source
row,Binder,EC50 [nM]
1,B6,5
2,B7,2

# Molecular target: T1, human transferrin receptor 1 (TfR1), …
# Test: FACS on Ba/F3 cells, purified Fab
# Remark: another data set of the same source
row,Binder,EC50 [nM]
1,B5,4.8
2,B8,8.2
3,B9,5.5
4,B10,6.5
5,B11,9.8

# Molecular target: T2, cynomolgus monkey transferrin receptor …
# Test: FACS on Ba/F3 cells, purified Fab
# Remark: another data set of the same source
row,Binder,EC50 [nM]
1,B5,2
2,B8,2.3
3,B9,1.9
4,B10,2.6
5,B11,3.4

# Molecular target: T5, human transferrin receptor 2 (TfR2) overexpressed on BaF3 cells (human, UniProt Q9UP52 1-801)
# T5 construct: whole, on cells
# T5 sequence (looked up): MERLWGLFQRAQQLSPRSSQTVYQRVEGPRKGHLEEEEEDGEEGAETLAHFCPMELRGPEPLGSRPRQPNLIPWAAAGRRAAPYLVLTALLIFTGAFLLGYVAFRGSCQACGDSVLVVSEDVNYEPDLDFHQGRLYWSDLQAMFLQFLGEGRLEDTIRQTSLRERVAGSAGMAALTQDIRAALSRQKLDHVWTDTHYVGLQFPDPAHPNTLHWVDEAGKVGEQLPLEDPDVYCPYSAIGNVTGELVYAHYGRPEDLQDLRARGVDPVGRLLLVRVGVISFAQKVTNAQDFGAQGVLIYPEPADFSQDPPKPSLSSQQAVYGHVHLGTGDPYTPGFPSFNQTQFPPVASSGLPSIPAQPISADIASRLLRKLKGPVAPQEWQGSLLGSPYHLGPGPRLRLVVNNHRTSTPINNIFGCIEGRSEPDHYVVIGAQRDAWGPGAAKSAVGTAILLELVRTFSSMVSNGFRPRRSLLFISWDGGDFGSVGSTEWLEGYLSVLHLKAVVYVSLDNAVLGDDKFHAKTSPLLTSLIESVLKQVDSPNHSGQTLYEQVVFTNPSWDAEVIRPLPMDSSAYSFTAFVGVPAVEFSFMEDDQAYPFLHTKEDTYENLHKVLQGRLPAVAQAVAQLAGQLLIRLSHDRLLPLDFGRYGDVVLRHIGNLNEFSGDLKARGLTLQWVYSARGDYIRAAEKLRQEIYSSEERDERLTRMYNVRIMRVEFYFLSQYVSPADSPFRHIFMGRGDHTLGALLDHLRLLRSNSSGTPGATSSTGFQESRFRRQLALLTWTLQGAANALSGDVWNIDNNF
# Test: FACS on BaF3 cells overexpressing human TfR2
row,Binder,binding result
1,B12,no binding (tested: 250 nM)
2,B13,no binding (tested: 250 nM)
